Values belong to the substance of their own block, whether it stands above or below them.
Experiments:
Test in all cases: SEC
[1] = target: Human apolipoprotein E4 S94C (human) (UniProt P02649)
[2] = target: Human apolipoprotein E4 S290C (human) (UniProt P02649)
[3] = target: Human apolipoprotein E4 W264C (human) (UniProt P02649)

stoichiometry N [1]: 4
Substance: Human apolipoprotein E4 S94C (from UniProt P02649 19-317) (natural protein)

stoichiometry N [2]: 4
Substance: Human apolipoprotein E4 S290C (from UniProt P02649 19-317) (natural protein)

stoichiometry N [3]: 4
Substance: Human apolipoprotein E4 W264C (from UniProt P02649 19-317) (natural protein)

Source: paper PMC3447985
